Data from article PMC8472933.

How the values were obtained:
[1] = molecular target: Menangle virus P protein C-terminal region, P209-388 (coiled-coil, linker and binding domain) (Menangle virus); test: AUC
[2] = molecular target: Menangle virus P protein C-terminal region, P209-388 (coiled-coil, linker and binding domain) (Menangle virus); test: SEC-MALLS

Menangle virus P protein C-terminal region, P209-388 (coiled-coil, linker and binding domain) (domain or fragment)
Kd [1]: 58 nM
stoichiometry N [1]: 4
stoichiometry N [2]: 4
